Assay results from paper PMC5829826.
Changes are numbered by the printed parent chain.

What was measured:
Experiment in all cases: EMSA
Settings in all cases: 60 mM HEPES-KOH pH 7.5, 25 mM MgCl2, 5 mM EDTA, 300 mM KCl, 50 µg/ml BSA, 3 mM DTT, 24 ng labeled DNA, 20 min, room temperature
[1] = molecular target: T1, PurR Y45F Y45F (Escherichia coli (TUV93-0?)) (UniProt P0ACP7)
T1 sequence: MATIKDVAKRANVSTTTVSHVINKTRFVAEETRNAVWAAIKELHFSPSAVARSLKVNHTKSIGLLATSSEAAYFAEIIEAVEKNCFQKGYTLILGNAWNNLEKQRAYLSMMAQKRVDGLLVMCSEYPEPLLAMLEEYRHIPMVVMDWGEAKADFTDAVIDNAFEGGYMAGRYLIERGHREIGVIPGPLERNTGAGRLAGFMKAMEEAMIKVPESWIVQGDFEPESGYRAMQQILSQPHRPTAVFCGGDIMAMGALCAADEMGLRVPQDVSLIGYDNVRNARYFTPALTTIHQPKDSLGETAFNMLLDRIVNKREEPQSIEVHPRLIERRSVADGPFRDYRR

[2] = molecular target: T2, PurR Y45E Y45E (Escherichia coli (TUV93-0?)) (UniProt P0ACP7)
T2 sequence: T1 sequence with F45E

[3] = molecular target: T3, PurR WT (Escherichia coli (TUV93-0?)) (UniProt P0ACP7)
T3 sequence: T1 sequence with F45Y

[4] = test system: LacI Y47F Y47F, ORF:a00089fe
[5] = test system: LacI Y47E Y47E, ORF:a00089fe
LacI WT, ORF:a00089fe = test system: LacI WT, ORF:a00089fe
[6] = molecular target: T4, Cra WT (Escherichia coli EHEC TUV93-0) (UniProt P0ACP1)
T4 sequence: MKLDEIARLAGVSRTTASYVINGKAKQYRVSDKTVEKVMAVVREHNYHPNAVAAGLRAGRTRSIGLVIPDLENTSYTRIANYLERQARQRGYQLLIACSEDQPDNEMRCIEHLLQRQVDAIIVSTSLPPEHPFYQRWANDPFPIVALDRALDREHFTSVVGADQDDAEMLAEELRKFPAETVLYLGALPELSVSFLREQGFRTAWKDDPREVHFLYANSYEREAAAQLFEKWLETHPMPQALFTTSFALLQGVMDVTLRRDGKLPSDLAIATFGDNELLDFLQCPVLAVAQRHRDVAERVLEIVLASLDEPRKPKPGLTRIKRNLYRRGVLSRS

[7] = molecular target: T5, Cra Y47E Y47E (Escherichia coli EHEC TUV93-0) (UniProt P0ACP1)
T5 sequence: T4 sequence with Y47E

[8] = molecular target: T6, Cra Y47F Y47F (Escherichia coli EHEC TUV93-0) (UniProt P0ACP1)
T6 sequence: T4 sequence with Y47F

[9] = test system: Cra WT (Escherichia coli EHEC TUV93-0)
[10] = test system: Cra Y47F (Escherichia coli EHEC TUV93-0)

CGTAATCAATCCAGACCATATGTGTCCCACGATTTTACGCCCTGTCATCCTGTTCGGGGGCGCATTCTAACAGAAAAAGAAAACGTTTGCGTAGGGATTTCCTTCCCGCGCATCAATAAAAATGGCGCTGAAAAAATATTCAACGCCATCGACTTTTTATGCCTTTGCGGCATCGGACAATGCGTGTCGGATGCGGCGTAAACGTCTTATCCGACCTACGGTTCTACC (double strand) [purF-cvpA regulatory fragment]
binding [1]: binds | binding [2]: no binding | binding [3]: binds

CGACGGCCAGTGAATCTGTAATCATAGTCATAGCTGTATCCTGTGTGAAATTGTTATCCGCTCACAATTTCACACAACATACGAGCCGGACGCATAGAGTGTAAAGCGTGGGGTGCCTAATGAGTGAGCTGACTCACATTAATTGCGTTGCGCTCACTGCCCGCTTTCCAGTCGGGAAACTTGTCGTGCCAGCTGCATTAATGAATCG (double strand) [lacO1O3 fragment]
binding [4]: binds | binding [5]: no binding | binding (LacI WT, ORF:a00089fe): binds

TTTACGGCTTTCCTTGCGTGCTGAAACAGAAGTATTATGCTTTCTTGAAACGTTTCAGCGCGATCTTGTCTTTAACCCTAAGCCAGGTTGGCGCTTTTTTTCTCATAGAAGCTGAATCGTTTCAATTCAGCAAGAGAGGAGAACTATGTTCCAGTTATCCGTACAGGACATCCATCCGGGCGAAAAGGCCGGAGACAAAGAAGAGGCGATTCGCCAGGTCGCTGCGGCGCTGGTGCAGGCCGGTAATGTAGCAGAAGGCTACGTCAATGGCATGCTG (double strand) [fruB regulatory fragment]
binding [6]: binds | binding [7]: no binding | binding [8]: binds

CACCTCCTAACTACTTAAAATTGCTATCATTCGTTATTGTTATCTAGTTGTGCAAAACATGCTAATGTAGCCACCAAATCATACTACAATTTATTAACTGTTATCTATAATGGCGAAAAGCGATGCTGAAAGGTGTCAGCTTTGCAAAAATTTGATTTGGATCACGTAATCAGTACCCAGAAGTGAGTAATCTTGCTTACGCCACTTGGAAGTGACGCATTAGAGATAATAACTCTAATGTTTAAACTCTTTTAGTAAATCACAGTGAGTGTGTGCGC (double strand) [adhE regulatory fragment]
binding [6]: binds | binding [7]: no binding | binding [8]: binds

LEE1 (ler) regulatory fragment
Kd [9]: 111 nM | binding signal (% reduction of binding vs no metabolite) [9]: 33 | Kd [10]: 130 nM | binding signal (% reduction of binding vs no metabolite) [10]: 33

CATGTGCTGCGACTGCGTTCGCTTACCCCAATCACTTACTTATGTAAGCTCCTGGGGATTCACTCGCTTGCCGCCTTCCTGTAACTCGAATTAAGTAGAGTATAGTGAAACGGTTCAGCTTGGTTTTTATTCTGTTTTATTTGTTTATGCAATGAGATCTATCTTATAAAGAGAAACGCTTAACTAAATGGAAATGC (double strand) [LEE1 (ler) regulatory fragment]
Kd [6]: 111 nM | binding [6]: binds | binding [7]: no binding | Kd [8]: 130 nM | binding [8]: binds
